Experimental data: patent publication US20050064507

Experiments:
[1] = target: T1, NCF1 peptide GAPPRRSSIRNAH (SEQ ID NO:101) (not fully specified)
T1 chain: GAPPRRSSIRNAH

[2] = target: T2, PKD1 peptide RVVQSVKHTKRKSSTVMK (SEQ ID NO:149) (not fully specified)
T2 chain: RVVQSVKHTKRKSSTVMK

[3] = target: T3, MCM2 peptide VQRHRSMRKTFARYLSFRRD (SEQ ID NO:129) (not fully specified)
T3 chain: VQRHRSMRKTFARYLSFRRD

[4] = target: T4, plectin peptide PLKEKKRERKTSSKSSVRKR (SEQ ID NO:125) (not fully specified)
T4 chain: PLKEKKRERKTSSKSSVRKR

[5] = target: T5, phospholemman peptide EEGTFRSSIRRLSTRRR (SEQ ID NO:116) (not fully specified)
T5 chain: EEGTFRSSIRRLSTRRR

[6] = target: T6, EBNA1BP2 peptide KRPGKKGSNKRPGKR (SEQ ID NO:112) (not fully specified)
T6 chain: KRPGKKGSNKRPGKR

[7] = target: T7, nuclear RNA export factor 3 peptide VRYTPYTISPYNRKGSFRKQ (SEQ ID NO:143) (not fully specified)
T7 chain: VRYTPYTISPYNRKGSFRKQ

[8] = target: T8, dag kinase iota peptide PQNSLKASNRKKKRTSFKRK (SEQ ID NO:151) (not fully specified)
T8 chain: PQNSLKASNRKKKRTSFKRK

[9] = target: T9, PSCD2 peptide AARKKRISVKKKQEQ (SEQ ID NO:93) (not fully specified)
T9 chain: AARKKRISVKKKQEQ

[10] = target: T10, Urotensin-2 receptor peptide LYARLARAYRRSQRASFKRA (SEQ ID NO:159) (not fully specified)
T10 chain: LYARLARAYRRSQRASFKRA

[11] = target: T11, PRKCA peptide RFARKGSLRQKNV (SEQ ID NO:85) (not fully specified)
T11 chain: RFARKGSLRQKNV

[12] = target: T12, MLK3 peptide QQVDRERPHVRRRRGTFKRS (SEQ ID NO:128) (not fully specified)
T12 chain: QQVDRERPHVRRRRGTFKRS

[13] = target: T13, ARHGAP6 peptide SAQITIPKDGQKRKKSLRKK (SEQ ID NO:156) (not fully specified)
T13 chain: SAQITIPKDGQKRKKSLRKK

[14] = target: T14, ERN1 peptide KLAVGRHSFSRRSGV (SEQ ID NO:94) (not fully specified)
T14 chain: KLAVGRHSFSRRSGV

[15] = target: T15, CHRM1 peptide RKIPKRPGSVHRTPSRQ (SEQ ID NO:83) (not fully specified)
T15 chain: RKIPKRPGSVHRTPSRQ

[16] = target: T16, dag kinase zeta peptide KKKKRASFKRKSSKKG (SEQ ID NO:114) (not fully specified)
T16 chain: KKKKRASFKRKSSKKG

[17] = target: T17, beta adducin peptide PSKSPSKKKKKFRTPSFLKK (SEQ ID NO:137) (not fully specified)
T17 chain: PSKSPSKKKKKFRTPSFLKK

[18] = target: T18, MARCKS peptide PSPSNETPKKKKKRFSFKKS (SEQ ID NO:157) (not fully specified)
T18 chain: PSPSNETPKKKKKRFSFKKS

[19] = target: T19, p164-RhoGEF peptide PRLIRRGSKKRPAR (SEQ ID NO:82) (not fully specified)
T19 chain: PRLIRRGSKKRPAR

[20] = target: T20, MARCKS peptide KKRFSFKKSFKLSGFSFKKN (SEQ ID NO:123) (not fully specified)
T20 chain: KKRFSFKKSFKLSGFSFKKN

[21] = target: T21, calcium channel, voltage-dependent, L type, alpha peptide RDIRQSPKRGFLRSASLGRR (SEQ ID NO:147) (not fully specified)
T21 chain: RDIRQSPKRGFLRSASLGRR

[22] = target: T22, cyclophilin G peptide TEEKSKKRKKKHRKNSRKHK (SEQ ID NO:165) (not fully specified)
T22 chain: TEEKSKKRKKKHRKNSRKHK

[23] = target: T23, NMDAR1 peptide RAITSTLASSFKRRR (SEQ ID NO:122) (not fully specified)
T23 chain: RAITSTLASSFKRRR

[24] = target: T24, MGC2941 peptide RPTPGDGEKRSRIKKSKKRK (SEQ ID NO:139) (not fully specified)
T24 chain: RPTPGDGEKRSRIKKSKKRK

[25] = target: T25, Myt1 kinase peptide PPRTPGWHQLQPRRVSFRGE (SEQ ID NO:163) (not fully specified)
T25 chain: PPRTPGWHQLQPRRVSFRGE

[26] = target: T26, ribosomal protein S6 peptide AKRRRLSSLRASTSK (SEQ ID NO:120) (not fully specified)
T26 chain: AKRRRLSSLRASTSK

[27] = target: T27, FLJ20574 peptide GENVLKKSMKSRVKG (SEQ ID NO:113) (not fully specified)
T27 chain: GENVLKKSMKSRVKG

[28] = target: T28, ARHGAP4 peptide AGPLRKSSLKKGGRL (SEQ ID NO:98) (not fully specified)
T28 chain: AGPLRKSSLKKGGRL

[29] = target: T29, CACNA1C peptide RGFLRSASLGRRASFHLE (SEQ ID NO:96) (not fully specified)
T29 chain: RGFLRSASLGRRASFHLE

[30] = target: T30, CREB1 peptide EILSRRPSYRKILND (SEQ ID NO:106) (not fully specified)
T30 chain: EILSRRPSYRKILND

B1: PKC-zeta (protein)
chain: MPSRTGPKMEGSGGRVRLKAHYGGDIFITSVDAATTFEELCEEVRDMCRLHQQHPLTLKWVDSEGDPCTVSSQMELEEAFRLARQCRDEGLIIHVFPSTPEQPGLPCPGEDKSIYRRGARRWRKLYRANGHLFQAKRFNRRAYCGQCSERIWGLARQGYRCINCKLLVHKRCHGLVPLTCRKHMDSVMPSQEPPVDDKNEDADLPSEETDGIAYISSSRKHDSIKDDSEDLKPVIDGMDGIKISQGLGLQDFDLIRVIGRGSYAKVLLVRLKKNDQIYAMKVVKKELVHDDEDIDWVQTEKHVFEQASSNPFLVGLHSCFQTTSRLFLVIEYVNGGDLMFHMQRQRKLPEEHARFYAAEICIALNFLHERGIIYRDLKLDNVLLDADGHIKLTDYGMCKEGLGPGDTTSTFCGTPNYIAPEILRGEEYGFSVDWWALGVLMFEMMAGRSPFDIITDNPDMNTEDYLFQVILEKPIRIPRFLSVKASHVLKGFLNKDPKERLGCRPQTGFSDIKSHAFFRSIDWDLLEKKQALPPFQPQITDDYGLDNFDTQFTSEPVQLTPDDEDAIKRIDQSEFEGFEYINPLLLSTEESV
- in vitro phosphorylation (% of best substrate) [1]: 3
- in vitro phosphorylation, 1 uM peptide (% of best substrate) [2]: 3
- in vitro phosphorylation, 10 uM peptide (% of best substrate) [2]: 5
- in vitro phosphorylation, 1 uM peptide (% of best substrate) [3]: 51
- in vitro phosphorylation, 10 uM peptide (% of best substrate) [3]: 31
- in vitro phosphorylation, 1 uM peptide (% of best substrate) [4]: 13
- in vitro phosphorylation, 10 uM peptide (% of best substrate) [4]: 12
- in vitro phosphorylation, 1 uM peptide (% of best substrate) [5]: 100
- in vitro phosphorylation, 10 uM peptide (% of best substrate) [5]: 100
- in vitro phosphorylation (% of best substrate) [6]: 1
- in vitro phosphorylation, 1 uM peptide (% of best substrate) [7]: 22
- in vitro phosphorylation, 10 uM peptide (% of best substrate) [7]: 79
- in vitro phosphorylation, 1 uM peptide (% of best substrate) [8]: 15
- in vitro phosphorylation, 10 uM peptide (% of best substrate) [8]: 28
- in vitro phosphorylation (% of best substrate) [9]: 1
- in vitro phosphorylation, 1 uM peptide (% of best substrate) [10]: 25
- in vitro phosphorylation, 10 uM peptide (% of best substrate) [10]: 41
- in vitro phosphorylation (% of best substrate) [11]: 56
- in vitro phosphorylation, 1 uM peptide (% of best substrate) [12]: 14
- in vitro phosphorylation, 10 uM peptide (% of best substrate) [12]: 9
- in vitro phosphorylation, 1 uM peptide (% of best substrate) [13]: 15
- in vitro phosphorylation, 10 uM peptide (% of best substrate) [13]: 44
- in vitro phosphorylation (% of best substrate) [14]: 10
- in vitro phosphorylation (% of best substrate) [15]: 4
- in vitro phosphorylation, 1 uM peptide (% of best substrate) [16]: 45
- in vitro phosphorylation, 10 uM peptide (% of best substrate) [16]: 51
- in vitro phosphorylation, 1 uM peptide (% of best substrate) [17]: 4
- in vitro phosphorylation, 10 uM peptide (% of best substrate) [17]: 5
- in vitro phosphorylation, 1 uM peptide (% of best substrate) [18]: 3
- in vitro phosphorylation, 10 uM peptide (% of best substrate) [18]: 6
- in vitro phosphorylation (% of best substrate) [19]: 38
- in vitro phosphorylation, 1 uM peptide (% of best substrate) [20]: 20
- in vitro phosphorylation, 10 uM peptide (% of best substrate) [20]: 20
- in vitro phosphorylation, 1 uM peptide (% of best substrate) [21]: 28
- in vitro phosphorylation, 10 uM peptide (% of best substrate) [21]: 34
- in vitro phosphorylation, 1 uM peptide (% of best substrate) [22]: 1
- in vitro phosphorylation, 10 uM peptide (% of best substrate) [22]: 2
- in vitro phosphorylation, 1 uM peptide (% of best substrate) [23]: 20
- in vitro phosphorylation, 10 uM peptide (% of best substrate) [23]: 17
- in vitro phosphorylation, 1 uM peptide (% of best substrate) [24]: 1
- in vitro phosphorylation, 10 uM peptide (% of best substrate) [24]: 1
- in vitro phosphorylation, 1 uM peptide (% of best substrate) [25]: 7
- in vitro phosphorylation, 10 uM peptide (% of best substrate) [25]: 26
- in vitro phosphorylation, 1 uM peptide (% of best substrate) [26]: 43
- in vitro phosphorylation, 10 uM peptide (% of best substrate) [26]: 34
- in vitro phosphorylation (% of best substrate) [27]: 1
- in vitro phosphorylation (% of best substrate) [28]: 4
- in vitro phosphorylation (% of best substrate) [29]: 22
- in vitro phosphorylation (% of best substrate) [30]: 15
